Among the data in paper PMC12720418 are Kd values, retold here.

The target in the test is VC1 tandem domains of the receptor for advanced glycation end-products (RAGE). As to the kind of experiment: ITC; 100 μM calprotectin (CP*) injected into 50 μM RAGE VC1 in the cell; 25°C; 50 mM HEPES pH 7.5, 150 mM NaCl, 10 mM CaCl2; average of three titrations, independent binding model.

For orientation: Kd means the equilibrium constant for the complex coming apart. Low values mean tighter binding, high ones weaker binding. In turn, “calprotectin heterodimer of S100A8 (C42S) and S100A9 (C3S) (from UniProt P05109 1-93; P06702 4-114) (complex)” yielded a Kd of 380 nM.
